Patent US20120114682A1 (GEORGIA TECH RESEARCH, published 2012)
Each block holds one molecule with its values, some of them ahead of it.

Assays:
[1] = biological target: T1, Fibrinogen fragment D (human, UniProt P02671 130-216; P02675 164-491; P02679 114-432, limits assumed); test: SPR (Biacore 2000), fragment D immobilised, equilibrium response fit to a single-site model
T1 construct: domain: Fragment D (or D-domain); Made by plasmin digestion of human fibrinogen and purified on GPRPAA beads; holds the C-terminal polymerization pockets without the N-terminal knobs; immobilised by amine coupling on the SPR chip; also called D-domain
T1 sequence (looked up) 1: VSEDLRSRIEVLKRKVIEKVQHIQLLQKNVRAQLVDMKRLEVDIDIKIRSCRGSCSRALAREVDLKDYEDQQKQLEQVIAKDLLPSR
T1 sequence (looked up) 2: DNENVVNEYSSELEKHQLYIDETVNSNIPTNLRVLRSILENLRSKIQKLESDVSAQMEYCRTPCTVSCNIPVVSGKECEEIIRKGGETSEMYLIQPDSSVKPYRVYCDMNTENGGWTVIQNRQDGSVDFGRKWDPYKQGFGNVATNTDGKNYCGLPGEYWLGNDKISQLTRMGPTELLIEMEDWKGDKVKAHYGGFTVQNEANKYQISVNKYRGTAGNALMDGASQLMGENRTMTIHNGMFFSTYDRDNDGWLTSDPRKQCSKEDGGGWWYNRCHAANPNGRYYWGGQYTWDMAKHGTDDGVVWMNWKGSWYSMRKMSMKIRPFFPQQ
T1 sequence (looked up) 3: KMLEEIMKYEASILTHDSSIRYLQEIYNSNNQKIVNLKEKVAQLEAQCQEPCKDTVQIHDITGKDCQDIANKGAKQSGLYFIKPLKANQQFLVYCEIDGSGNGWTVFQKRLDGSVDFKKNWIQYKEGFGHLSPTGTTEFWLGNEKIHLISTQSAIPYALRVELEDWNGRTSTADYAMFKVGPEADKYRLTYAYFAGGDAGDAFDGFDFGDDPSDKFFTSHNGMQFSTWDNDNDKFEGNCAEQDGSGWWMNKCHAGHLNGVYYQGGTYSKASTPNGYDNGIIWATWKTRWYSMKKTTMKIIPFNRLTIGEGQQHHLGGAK

[2] = biological target: T1, Fibrinogen fragment D; test: SPR, fragment D immobilised, competitor soluble GPRP peptide in the analyte solution
[3] = biological target: Fibrin matrix (clot) (human) (UniProt P02671); test: confocal colocalisation, perfused fibrin clot, 10 min
[4] = biological target: Fibrin matrix (clot) (human) (UniProt P02671); test: confocal colocalisation, perfused fibrin clot, 30 min
[5] = biological target: Fibrin matrix (clot) (human) (UniProt P02671); test: confocal colocalisation, perfused fibrin clot, 0 min
[6] = biological target: Fibrin matrix (clot) (human) (UniProt P02671); test: confocal colocalisation, perfused fibrin clot, 20 min
[7] = biological target: T1, Fibrinogen fragment D; test: SPR, fragment D immobilised, heterogeneous ligand model, site 2 (kd2)
Protocol: (§1) Upon stabilization of the baseline signal, kinetic binding experiments were run in duplicate with the peptide variants as the flow analytes. Five varying concentrations for each peptide (0.94 μM to 150 μM) were flowed at 25 μL/min for 4 min immediately followed by a 10 min dissociation phase. Between each run, the surface was regenerated with 1M sodium bromide and 50 mM sodium acetate (pH 6.0). SPR experiments were performed three times with varying peptide injection order to rule out binding trends associated with injection sequence. Peptide solutions were incubated with tris(2-carboxyethyl)phosphine (TCEP) immobilized on agarose beads (Thermo Fisher Scientific, Inc; Rockland, Ill.) to ensure reduction of any disulfide bonds between C-terminal cysteines.
(§2) To investigate the dynamic binding profile between the fibrinogen/fibrin holes and knob peptide variants, SPR was employed. Binding interactions were evaluated by flowing the knob peptides over an immobilized surface of fragment D (FIG. 8). By immobilizing fragment D as opposed to full-length fibrinogen, the kinetic binding model was simplified to a heterogeneous 2-site ligand model (i.e. one hole ‘a’ and hole ‘b’ per ligand) as opposed to a 4-site model (i.e. two of each hole ‘a’ and hole ‘b’ per ligand). The data was modeled using both a Langmuir 1:1 model and a heterogeneous ligand model to compare previously established binding affinities to a more dynamic two-site model. However, the complexity of the heterogeneous model fitted parameters for sites 1 and 2 (i.e. maximal binding response, kₐ, and kd) limits direct designation or assignment of holes ‘a’ or ‘b’ to site 1 or 2. […] All peptide SPR data was fit except for the negative control peptide, GPSPAAC (SEQ ID NO:9), where minimal binding response was observed.

[8] = biological target: T1, Fibrinogen fragment D; test: SPR, fragment D immobilised, heterogeneous ligand model, site 1
Protocol: as §1, §2

[9] = biological target: T1, Fibrinogen fragment D; test: SPR, heterogeneous ligand model, site 1 (KD1 = kd/ka)
Protocol: as §1, §2

[10] = biological target: T1, Fibrinogen fragment D; test: SPR, fragment D immobilised, Langmuir 1:1 model
Protocol: as §1, §2

[11] = biological target: T1, Fibrinogen fragment D; test: SPR, heterogeneous ligand model, site 2 (KD2 = kd/ka)
Protocol: as §1, §2

[12] = biological target: T1, Fibrinogen fragment D; test: SPR, fragment D immobilised, heterogeneous ligand model, site 1 (ka1)
Protocol: as §1, §2

[13] = biological target: T1, Fibrinogen fragment D; test: SPR, fragment D immobilised, heterogeneous ligand model, site 2
Protocol: as §1, §2

[14] = biological target: T1, Fibrinogen fragment D; test: SPR, fragment D immobilised, heterogeneous ligand model, site 1 (kd1)
Protocol: as §1, §2

[15] = biological target: T1, Fibrinogen fragment D; test: SPR (Biacore 2000), fragment D immobilised, Langmuir 1:1 model
Protocol: as §1, §2

[16] = biological target: T1, Fibrinogen fragment D; test: SPR maximal binding response against peptide concentration, fibrinogen fragment D immobilised
Protocol: as §1
Prior to analysis, all sensorgrams were inspected for abnormalities (i.e. baseline drift, air spikes, or irregular deviations) and excluded. Reference cell responses were subtracted from corresponding active response curves. […] The resulting curves were then analyzed and fitted to the kinetic models. Kinetic modeling and simulations were performed with ClampXP software using the Langmuir 1:1 model or the heterogeneous ligand model; globally fitted parameters were determined for each kinetic data set per peptide. Equilibrium binding constants were calculated from fitted kinetic constants.

[17] = biological target: Human fibrinogen (human) (UniProt P02671); test: competition ELISA: soluble peptide added to fibrinogen, binding of fibrinogen to immobilised GPRP-FnIII9-10-C is measured; signal normalised to the GSPE peptide
[18] = biological target: T1, Fibrinogen fragment D; test: SPR, fragment D immobilised, heterogeneous ligand model, site 2 (ka2)
Protocol: as §1
To investigate the dynamic binding profile between the fibrinogen/fibrin holes and knob peptide variants, SPR was employed. Binding interactions were evaluated by flowing the knob peptides over an immobilized surface of fragment D (FIG. 8). By immobilizing fragment D as opposed to full-length fibrinogen, the kinetic binding model was simplified to a heterogeneous 2-site ligand model (i.e. one hole ‘a’ and hole ‘b’ per ligand) as opposed to a 4-site model (i.e. two of each hole ‘a’ and hole ‘b’ per ligand). […]

Sequence of Fibrin matrix (clot) (human) (P02671 36-629 limits assumed, chain 1 of 2): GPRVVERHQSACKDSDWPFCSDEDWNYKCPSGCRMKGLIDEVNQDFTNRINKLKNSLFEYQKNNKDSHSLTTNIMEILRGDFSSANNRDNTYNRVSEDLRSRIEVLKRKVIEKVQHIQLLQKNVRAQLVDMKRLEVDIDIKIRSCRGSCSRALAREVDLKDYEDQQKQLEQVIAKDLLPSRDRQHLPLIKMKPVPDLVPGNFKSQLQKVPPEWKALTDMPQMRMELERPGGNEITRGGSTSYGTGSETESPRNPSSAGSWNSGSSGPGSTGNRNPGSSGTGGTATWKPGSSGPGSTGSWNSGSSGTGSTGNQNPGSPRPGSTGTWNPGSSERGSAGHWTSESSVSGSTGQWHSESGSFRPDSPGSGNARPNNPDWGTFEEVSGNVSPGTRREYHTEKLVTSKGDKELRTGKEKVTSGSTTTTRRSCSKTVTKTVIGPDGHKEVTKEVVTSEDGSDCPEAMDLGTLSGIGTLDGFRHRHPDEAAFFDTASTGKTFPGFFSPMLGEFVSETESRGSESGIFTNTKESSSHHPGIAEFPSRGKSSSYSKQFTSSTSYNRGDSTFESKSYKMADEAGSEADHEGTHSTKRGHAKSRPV
Sequence of Fibrin matrix (clot) (human) (P02679 other isoform, or with tags, fused parts or gaps limits assumed, chain 3 of 2, further chain): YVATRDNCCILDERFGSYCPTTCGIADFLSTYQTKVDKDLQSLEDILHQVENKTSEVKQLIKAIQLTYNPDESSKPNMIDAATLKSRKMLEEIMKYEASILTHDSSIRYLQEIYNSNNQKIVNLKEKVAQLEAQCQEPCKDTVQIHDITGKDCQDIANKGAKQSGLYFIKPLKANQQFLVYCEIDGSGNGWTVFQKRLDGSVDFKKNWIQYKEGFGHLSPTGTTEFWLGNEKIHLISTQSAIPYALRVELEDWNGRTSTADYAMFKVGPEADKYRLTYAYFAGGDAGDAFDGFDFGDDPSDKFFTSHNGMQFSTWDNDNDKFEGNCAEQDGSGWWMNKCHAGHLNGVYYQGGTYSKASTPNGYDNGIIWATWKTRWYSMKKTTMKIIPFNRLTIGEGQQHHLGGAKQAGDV

Molecule: GPRP-FnIII9-10 (from UniProt P02751 1448-1631)
KD in the presence of a 10-molar excess of soluble GPRP peptide [2]: 43 µM | Kd [1]: 3 µM

Molecule: GPRP-FnIII9-10-AF633 (from UniProt P02751 1448-1631)
Colocalization Coefficient (Fibrin) [3]: 0.325 | Colocalization Coefficient (GPRP-Fn) [3]: 0.956 | Correlation Coefficient (R) [3]: 0.19 | Mean Intensity (GPRP-Fn) [3]: 55 | Relative Area of Colocalization [3]: 28.5% | Colocalization Coefficient (Fibrin) [4]: 0.159 | Colocalization Coefficient (GPRP-Fn) [4]: 0.926 | Correlation Coefficient (R) [4]: 0.11 | Mean Intensity (GPRP-Fn) [4]: 51 | Relative Area of Colocalization [4]: 12.8% | Colocalization Coefficient (Fibrin) [5]: 0.981 | Colocalization Coefficient (GPRP-Fn) [5]: 0.965 | Correlation Coefficient (R) [5]: 0.47 | Mean Intensity (GPRP-Fn) [5]: 100 | Relative Area of Colocalization [5]: 94.2% | Colocalization Coefficient (Fibrin) [6]: 0.219 | Colocalization Coefficient (GPRP-Fn) [6]: 0.948 | Correlation Coefficient (R) [6]: 0.14 | Mean Intensity (GPRP-Fn) [6]: 52 | Relative Area of Colocalization [6]: 19.1%

B1: GPRPAAC (peptide)
peptide: GPRPAAC
notes: Synthetic (GenScript); kept reduced with immobilised TCEP; also called gold standard GPRP mimic; knob 'A' peptide
koff [7]: 0.00895 s⁻¹ | Bmax (maximal binding capacity of fragment D, site 1) [8]: 19.4 RU | Kd [9]: 4.53 µM | koff [10]: 0.0117 s⁻¹ | kon [10]: 1140 M⁻¹ s⁻¹ | Kd [11]: 8.52 µM | kon [12]: 2840 M⁻¹ s⁻¹ | B*max (maximal binding capacity of fragment D, site 2) [13]: 5.91 RU | koff [14]: 0.0128 s⁻¹ | Bmax (maximal binding capacity of fragment D) [15]: 21.5 RU

B2: GPSPAAC (peptide)
peptide: GPSPAAC
notes: Synthetic (GenScript); negative control; also called negative control peptide
binding result [16]: no binding (tested: just below 10^-4 M (last point))

B3: GPRV tetrapeptide (peptide)
peptide: GPRV
IC50 (read off the curve) [17]: 200 µg/mL

B4: GPRPPERC (peptide)
peptide: GPRPPERC
notes: Synthetic (GenScript); also called knob 'A' peptide
koff [7]: 0.00296 s⁻¹ | Bmax (maximal binding capacity of fragment D, site 1) [8]: 14.6 RU | Kd [9]: 18.2 µM | koff [10]: 0.00992 s⁻¹ | kon [10]: 1290 M⁻¹ s⁻¹ | Kd [11]: 2.93 µM | kon [12]: 3220 M⁻¹ s⁻¹ | B*max (maximal binding capacity of fragment D, site 2) [13]: 5.92 RU | koff [14]: 0.0587 s⁻¹ | Bmax (maximal binding capacity of fragment D) [15]: 19.2 RU

B7: GPRPFPAC (peptide)
peptide: GPRPFPAC
notes: as for B4
koff [7]: 0.00196 s⁻¹ | Bmax (maximal binding capacity of fragment D, site 1) [8]: 17.6 RU | Kd [9]: 3.73 µM | koff [10]: 0.00727 s⁻¹ | kon [10]: 12500 M⁻¹ s⁻¹ | Kd [11]: 1.08 µM | kon [12]: 21700 M⁻¹ s⁻¹ | kon [18]: 1810 M⁻¹ s⁻¹ | B*max (maximal binding capacity of fragment D, site 2) [13]: 11.3 RU | koff [14]: 0.0811 s⁻¹ | Bmax (maximal binding capacity of fragment D) [15]: 17.7 RU

Continued, values first:

Kd [1]: 125 µM
Molecule: GPRV-FnIII9-10 (from UniProt P02751 1448-1631)

Colocalization Coefficient (Fibrin) [3]: 0.001 | Colocalization Coefficient (GSPE-Fn) [3]: 0.521 | Correlation Coefficient (R) [3]: -0.06 | Mean Intensity (GSPE-Fn) [3]: 45 | Relative Area of Colocalization [3]: 0% | Colocalization Coefficient (Fibrin) [4]: 0.003 | Colocalization Coefficient (GSPE-Fn) [4]: 0.377 | Correlation Coefficient (R) [4]: -0.02 | Mean Intensity (GSPE-Fn) [4]: 38 | Relative Area of Colocalization [4]: 0.1% | Colocalization Coefficient (Fibrin) [5]: 0.01 | Colocalization Coefficient (GSPE-Fn) [5]: 0.739 | Correlation Coefficient (R) [5]: 0.04 | Mean Intensity (GSPE-Fn) [5]: 46 | Relative Area of Colocalization [5]: 0.6% | Colocalization Coefficient (Fibrin) [6]: 0.003 | Colocalization Coefficient (GSPE-Fn) [6]: 0.0413 | Correlation Coefficient (R) [6]: 0.02 | Mean Intensity (GSPE-Fn) [6]: 44 | Relative Area of Colocalization [6]: 0.1%
Molecule: GSPE-FnIII9-10-AF633 (from UniProt P02751 1448-1631)

koff [7]: 0.001 s⁻¹ | Bmax (maximal binding capacity of fragment D, site 1) [8]: 8.36 RU | Kd [9]: 48.5 µM | koff [10]: 0.0107 s⁻¹ | Kd [11]: 25 µM | kon [12]: 620 M⁻¹ s⁻¹ | B*max (maximal binding capacity of fragment D, site 2) [13]: 13.5 RU | koff [14]: 0.0301 s⁻¹ | Bmax (maximal binding capacity of fragment D) [15]: 18.9 RU
B5: GPRVVAAC (peptide)
peptide: GPRVVAAC
notes: as for B4

koff [7]: 0.00407 s⁻¹ | Bmax (maximal binding capacity of fragment D, site 1) [8]: 25.6 RU | Kd [9]: 53.9 µM | koff [10]: 0.0234 s⁻¹ | kon [10]: 280 M⁻¹ s⁻¹ | Kd [11]: 15.7 µM | kon [18]: 260 M⁻¹ s⁻¹ | B*max (maximal binding capacity of fragment D, site 2) [13]: 10.3 RU | koff [14]: 0.0577 s⁻¹ | Bmax (maximal binding capacity of fragment D) [15]: 16.3 RU
B6: GPRVVERC (peptide)
peptide: GPRVVERC
notes: as for B4
